Measurements from US20190218277A1 (Chugai, published 2019).
Where two headings read alike, the source gives them in different places.

What was measured:
human C1q (Calbiochem) = human C1q (Calbiochem) (human, UniProt P02745 23-245; P02746 28-253; P02747 29-245); test: ELISA: antibody coated on the plate at the concentration shown, human C1q added, detected with HRP anti-human C1q, OD 450 nm
human FcγRIa = molecular target: T1, human FcγRIa (human, UniProt P12314 16-292); test: SPR (Biacore T200, pH 7.4, 25 °C): His-tagged FcγR captured by anti-His antibody; antibody injected at 100 nM alone (Ab alone) or as 1:1 complex with trimeric CD154 (CD154 IC); binding level / capture level [A]
T1 construct: also called human FcγR1a
T1 sequence (P12314 16-292 limits assumed): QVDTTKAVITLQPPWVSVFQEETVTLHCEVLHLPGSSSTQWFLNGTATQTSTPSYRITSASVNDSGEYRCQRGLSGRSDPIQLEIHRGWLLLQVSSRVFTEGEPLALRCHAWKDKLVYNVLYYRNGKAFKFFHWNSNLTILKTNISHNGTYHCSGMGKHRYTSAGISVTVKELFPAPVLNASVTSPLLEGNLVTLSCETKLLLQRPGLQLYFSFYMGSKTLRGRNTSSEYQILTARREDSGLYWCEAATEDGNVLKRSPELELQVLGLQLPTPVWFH

human FcγRIIb = molecular target: T2, human FcγRIIb (human, UniProt P31994 43-217); test: SPR (Biacore T200, pH 7.4, 25 °C): His-tagged FcγR captured by anti-His antibody; antibody injected at 100 nM alone (Ab alone) or as 1:1 complex with trimeric CD154 (CD154 IC); binding level / capture level [D]
T2 construct: also called human FcγR2b
T2 sequence: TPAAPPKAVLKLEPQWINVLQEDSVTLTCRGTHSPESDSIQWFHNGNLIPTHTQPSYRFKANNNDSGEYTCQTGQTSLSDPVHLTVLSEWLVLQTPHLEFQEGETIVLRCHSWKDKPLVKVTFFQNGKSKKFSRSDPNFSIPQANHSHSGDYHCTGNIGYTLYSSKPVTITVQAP

human FcγRIIIa (158F) = molecular target: T3, human FcγRIIIa (158F) (human, UniProt P08637 17-208); test: SPR (Biacore T200, pH 7.4, 25 °C): His-tagged FcγR captured by anti-His antibody; antibody injected at 100 nM alone (Ab alone) or as 1:1 complex with trimeric CD154 (CD154 IC); binding level / capture level [E]
T3 construct: also called human FcγR3a allelic variant 158F

human FcγRIIIa (158V) = molecular target: T4, human FcγRIIIa (158V) (human, UniProt P08637 17-208); test: SPR (Biacore T200, pH 7.4, 25 °C): His-tagged FcγR captured by anti-His antibody; antibody injected at 100 nM alone (Ab alone) or as 1:1 complex with trimeric CD154 (CD154 IC); binding level / capture level [F]
T4 construct: also called human FcγR3a allelic variant 158V

human FcγRIIIb (NA1) = molecular target: T5, human FcγRIIIb (NA1) (human, UniProt O75015 17-200); test: SPR (Biacore T200, pH 7.4, 25 °C): His-tagged FcγR captured by anti-His antibody; antibody injected at 100 nM alone (Ab alone) or as 1:1 complex with trimeric CD154 (CD154 IC); binding level / capture level [G]
T5 construct: also called human FcγR3b allelic variant NA1
T5 chain: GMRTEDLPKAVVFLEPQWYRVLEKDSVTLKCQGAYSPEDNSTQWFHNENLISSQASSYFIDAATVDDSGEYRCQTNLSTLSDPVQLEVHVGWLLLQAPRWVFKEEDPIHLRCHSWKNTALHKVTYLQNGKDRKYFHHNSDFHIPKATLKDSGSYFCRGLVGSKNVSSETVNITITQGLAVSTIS

human FcγRIIIb (NA2) = molecular target: T6, human FcγRIIIb (NA2) (human, UniProt O75015 17-200); test: SPR (Biacore T200, pH 7.4, 25 °C): His-tagged FcγR captured by anti-His antibody; antibody injected at 100 nM alone (Ab alone) or as 1:1 complex with trimeric CD154 (CD154 IC); binding level / capture level [H]
T6 construct: also called human FcγR3b allelic variant NA2
T6 chain: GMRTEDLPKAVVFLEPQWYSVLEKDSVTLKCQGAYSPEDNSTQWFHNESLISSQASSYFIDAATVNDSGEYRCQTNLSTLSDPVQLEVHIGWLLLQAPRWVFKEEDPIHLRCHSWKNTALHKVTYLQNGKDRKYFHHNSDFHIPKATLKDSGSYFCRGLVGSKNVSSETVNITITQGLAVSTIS

mouse FcγRI = molecular target: T7, mouse FcγRI (mouse, UniProt P26151 25-297); test: SPR (Biacore T200, pH 7.4, 25 °C): His-tagged FcγR captured by anti-His antibody; antibody injected at 100 nM alone (Ab alone) or as 1:1 complex with trimeric CD154 (CD154 IC); binding level / capture level [A]
T7 construct: also called mFcγRI; mouse FcγR1
T7 sequence: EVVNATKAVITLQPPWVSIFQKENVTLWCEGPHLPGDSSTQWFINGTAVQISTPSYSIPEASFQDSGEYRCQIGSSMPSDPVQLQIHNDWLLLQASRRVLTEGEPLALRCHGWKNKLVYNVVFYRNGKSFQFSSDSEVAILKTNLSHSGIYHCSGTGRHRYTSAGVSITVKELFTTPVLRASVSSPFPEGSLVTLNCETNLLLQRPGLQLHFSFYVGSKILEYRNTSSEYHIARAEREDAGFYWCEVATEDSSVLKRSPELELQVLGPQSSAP

mouse FcγRIII = molecular target: T8, mouse FcγRIII (mouse, UniProt P08508 31-215); test: SPR (Biacore T200, pH 7.4, 25 °C): His-tagged FcγR captured by anti-His antibody; antibody injected at 100 nM alone (Ab alone) or as 1:1 complex with trimeric CD154 (CD154 IC); binding level / capture level [C]
T8 construct: also called mFcγRIII; mouse FcγR3
T8 chain: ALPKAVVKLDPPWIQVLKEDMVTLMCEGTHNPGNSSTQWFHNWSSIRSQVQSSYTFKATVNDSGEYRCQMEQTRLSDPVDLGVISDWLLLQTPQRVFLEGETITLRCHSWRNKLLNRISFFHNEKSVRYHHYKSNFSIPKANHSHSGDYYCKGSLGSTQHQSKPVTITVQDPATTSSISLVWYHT

mouse FcγRIV = molecular target: T9, mouse FcγRIV (mouse, UniProt A0A0B4J1G0 21-203); test: SPR (Biacore T200, pH 7.4, 25 °C): His-tagged FcγR captured by anti-His antibody; antibody injected at 100 nM alone (Ab alone) or as 1:1 complex with trimeric CD154 (CD154 IC); binding level / capture level [D]
T9 construct: also called mFcγRIV; mouse FcγR4
T9 sequence: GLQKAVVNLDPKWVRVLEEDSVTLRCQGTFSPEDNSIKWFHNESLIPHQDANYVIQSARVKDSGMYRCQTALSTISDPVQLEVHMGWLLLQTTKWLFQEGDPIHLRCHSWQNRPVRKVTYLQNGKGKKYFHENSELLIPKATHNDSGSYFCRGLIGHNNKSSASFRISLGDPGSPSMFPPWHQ

mouse FcγRIIb = molecular target: T10, mouse FcγRIIb (mouse, UniProt P08101 30-210); test: SPR (Biacore T200, pH 7.4, 25 °C): His-tagged FcγR captured by anti-His antibody; antibody injected at 100 nM alone (Ab alone) or as 1:1 complex with trimeric CD154 (CD154 IC); binding level / capture level [B]
T10 construct: also called mFcγRIIb; mouse FcγR2b
T10 sequence: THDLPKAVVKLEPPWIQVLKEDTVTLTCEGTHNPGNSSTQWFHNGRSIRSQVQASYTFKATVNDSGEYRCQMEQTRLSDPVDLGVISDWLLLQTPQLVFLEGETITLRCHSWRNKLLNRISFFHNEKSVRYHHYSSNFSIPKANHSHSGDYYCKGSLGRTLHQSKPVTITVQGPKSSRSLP

[1] = molecular target: T11, Recombinant soluble E protein (0.8E-His) from DENV-3 (DENV-3, UniProt P27915 281-673)
T11 construct: also called DENV-3 E protein; DV3

[2] = molecular target: T11, Recombinant soluble E protein …; remark: listed apart in the source
[3] = molecular target: T12, Recombinant soluble E protein (0.8E-His) from DENV-1 (DENV-1, UniProt P27909 281-675)
T12 construct: also called DENV-1 E protein; DV1

[4] = molecular target: T13, Recombinant soluble E protein (0.8E-His) from DENV-2 (DENV-2, UniProt P14340 281-675)
T13 construct: also called DENV-2 E protein; DV2

[5] = molecular target: T14, Recombinant soluble E protein (0.8E-His) from DENV-4 (DENV-4, UniProt P09866 280-674)
T14 construct: also called DENV-4 E protein; DV4

[6] = molecular target: T12, Recombinant soluble E protein …; remark: listed apart in the source

human C1q (Calbiochem), sequence (P02745 23-245 limits assumed, chain 1 of 3): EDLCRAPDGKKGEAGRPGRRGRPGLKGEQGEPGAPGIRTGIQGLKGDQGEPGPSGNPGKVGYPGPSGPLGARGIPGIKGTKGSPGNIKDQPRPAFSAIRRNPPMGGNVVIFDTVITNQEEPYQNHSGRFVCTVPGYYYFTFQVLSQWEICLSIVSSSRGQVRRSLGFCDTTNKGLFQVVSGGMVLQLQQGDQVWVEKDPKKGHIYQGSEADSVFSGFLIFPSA
human C1q (Calbiochem), sequence (P02746 28-253 limits assumed, chain 2 of 3): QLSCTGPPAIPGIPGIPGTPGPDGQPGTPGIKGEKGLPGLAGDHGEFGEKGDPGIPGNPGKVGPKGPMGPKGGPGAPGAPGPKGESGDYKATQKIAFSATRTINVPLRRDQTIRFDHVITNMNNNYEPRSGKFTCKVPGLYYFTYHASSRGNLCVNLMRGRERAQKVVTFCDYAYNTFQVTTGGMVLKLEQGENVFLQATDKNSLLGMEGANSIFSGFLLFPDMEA
human C1q (Calbiochem), sequence (P02747 29-245 limits assumed, chain 3 of 3): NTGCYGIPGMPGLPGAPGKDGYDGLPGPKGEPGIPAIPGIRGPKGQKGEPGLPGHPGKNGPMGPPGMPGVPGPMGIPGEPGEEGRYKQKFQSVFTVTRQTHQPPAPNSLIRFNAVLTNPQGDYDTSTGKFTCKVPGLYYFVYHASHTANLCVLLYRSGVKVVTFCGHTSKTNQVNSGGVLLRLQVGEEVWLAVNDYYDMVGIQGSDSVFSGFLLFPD

| Binder | EC50 (read off the curve) (human C1q (Calbiochem)) | binding result (human FcγRIa) | binding result (human FcγRIIb) | binding result (human FcγRIIIa (158F)) | binding result (human FcγRIIIa (158V)) | binding result (human FcγRIIIb (NA1)) | binding result (human FcγRIIIb (NA2)) | binding result (mouse FcγRI) | binding result (mouse FcγRIII) | binding result (mouse FcγRIV) | binding result (mouse FcγRIIb) | Kd [1] | Kd [2] | Kd [3] | Kd [4] | Kd [5] | Kd [6] |
| --- | --- | --- | --- | --- | --- | --- | --- | --- | --- | --- | --- | --- | --- | --- | --- | --- | --- |
| Anti-CD154 antibody (SLAPH0336a/SLAPL0336a) with Fc variant LALA+EFT (SG1090) (antibody, human IgG1, kappa, L234A L235A) heavy: EVQLVESGGGSVKPGGSLKLSCAASGFTFSDHYMYWVRQTPEKRLEWVAIISGGGSYTSYPDSMKGRFTISRDNAKNILHLQMSSLKSEDTAMYYCTRESNGKPGFAYWGQGTLVTVSAASTKGPSVFPLAPSSKSTSGGTAALGCLVKDYFPEPVTVSWNSGALTSGVHTFPAVLQSSGLYSLSSVVTVPSSSLGTQTYICNVNHKPSNTKVDKRVEPKSCDKTHTCPPCPAPEAAGGPSVFLFPPKPKDTLMISRTPEVTCVVVDVEFEDPEVKFNWYVDGVEVHNAKTKPREEQYNSTYRVVSVLTVLHQDWLNGKEYKCKVTNKALPAPIEKTISKAKGQPREPQVYTLPPSREEMTKNQVSLTCLVKGFYPSDIAVEWESNGQPENNYKTTPPVLDSDGSFFLYSKLTVDKSRWQQGNVFSCSVMHEALHNHYTQKSLSLSP light: not shown | ~2 µg/mL | binds | binds | no binding (tested: 100 nM) | binds | no binding (tested: 100 nM) | no binding (tested: 100 nM) | no binding (tested: 100 nM) | binds | no binding (tested: 100 nM) |  |  |  |  |  |  |  |
| EFT+AE (antibody, human IgG1, kappa, also called Anti-CD154 antibody (SLAPH0336a/SLAPL0336a) with Fc variant EFT+AE (SG1086); SG1086) heavy chain: EVQLVESGGGSVKPGGSLKLSCAASGFTFSDHYMYWVRQTPEKRLEWVAIISGGGSYTSYPDSMKGRFTISRDNAKNILHLQMSSLKSEDTAMYYCTRESNGKPGFAYWGQGTLVTVSAASTKGPSVFPLAPSSKSTSGGTAALGCLVKDYFPEPVTVSWNSGALTSGVHTFPAVLQSSGLYSLSSVVTVPSSSLGTQTYICNVNHKPSNTKVDKRVEPKSCDKTHTCPPCPAPELLAGPSVFLFPPKPKDTLMISRTPEVTCVVVDVEFEDPEVKFNWYVDGVEVHNAKTKPREEQYNSTYRVVSVLTVLHQDWLNGKEYKCKVTNKALPAPEEKTISKAKGQPREPQVYTLPPSREEMTKNQVSLTCLVKGFYPSDIAVEWESNGQPENNYKTTPPVLDSDGSFFLYSKLTVDKSRWQQGNVFSCSVMHEALHNHYTQKSLSLSP light chain: not shown |  | binds | binds | binds | binds |  | binds | binds | binds | binds | binds |  |  |  |  |  |  |
| DG_3CH1047-SG182/3CL658-SK1 (antibody, human IgG1, kappa, V domains shown, also called 3Cam) VH: QVQLVQSGPDVEKPGASVKVSCKASGYTFTSYYMHWVRQAPGQGLEWMGVINPRGGSRRSAQKFQGRITMTRDTSTSTVYMELSSLRSEDTAVYYCARGGEALFYDSYTTPFDGGSWWFDPWGQGSLVTVSS VL: DIQLTQSPSSLSASVGDRVTFTCQASQEIRKYLNWYQQKPGKAPKLLIYDASELKTGVPSRFSGSGSGTDFTFTISSLQPEDVATYYCQQFEDLPITFGQGTRLQIKR |  |  |  |  |  |  |  |  |  |  |  | 0.00382 nM | 0.00501 nM | 3.51 nM | 0.765 nM | 9.11 nM | 2.98 nM |
